Data reported in IntAct's records for PubMed 29892012.

B1: Zinc finger protein 64 (Homo sapiens), Q9NTW7 (parent)
chain: MNASSEGESFAGSVQIPGGTTVLVELTPDIHICGICKQQFNNLDAFVAHKQSGCQLTGTSAAAPSTVQFVSEETVPATQTQTTTRTITSETQTITVSAPEFVFEHGYQTYLPTESNENQTATVISLPAKSRTKKPTTPPAQKRLNCCYPGCQFKTAYGMKDMERHLKIHTGDKPHKCEVCGKCFSRKDKLKTHMRCHTGVKPYKCKTCDYAAADSSSLNKHLRIHSDERPFKCQICPYASRNSSQLTVHLRSHTASELDDDVPKANCLSTESTDTPKAPVITLPSEAREQMATLGERTFNCCYPGCHFKTVHGMKDLDRHLRIHTGDKPHKCEFCDKCFSRKDNLTMHMRCHTSVKPHKCHLCDYAAVDSSSLKKHLRIHSDERPYKCQLCPYASRNSSQLTVHLRSHTGDTPFQCWLCSAKFKISSDLKRHMIVHSGEKPFKCEFCDVRCTMKANLKSHIRIKHTFKCLHCAFQGRDRADLLEHSRLHQADHPEKCPECSYSCSSAAALRVHSRVHCKDRPFKCDFCSFDTKRPSSLAKHVDKVHRDEAKTENRAPLGKEGLREGSSQHVAKIVTQRAFRCETCGASFVRDDSLRCHKKQHSDQSENKNSDLVTFPPESGASGQLSTLVSVGQLEAPLEPSQDL
partner: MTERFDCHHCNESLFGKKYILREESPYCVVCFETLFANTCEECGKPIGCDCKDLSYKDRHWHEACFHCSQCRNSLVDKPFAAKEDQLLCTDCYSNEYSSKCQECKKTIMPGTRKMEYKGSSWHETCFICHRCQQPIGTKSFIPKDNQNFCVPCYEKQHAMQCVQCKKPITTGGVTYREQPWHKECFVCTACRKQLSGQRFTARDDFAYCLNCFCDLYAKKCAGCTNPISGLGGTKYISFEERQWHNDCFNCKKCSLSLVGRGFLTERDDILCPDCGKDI
B2: Liprin-alpha-1 (Homo sapiens), Q13136 (parent)
chain: MMCEVMPTISEAEGPPGGGGGHGSGSPSQPDADSHFEQLMVSMLEERDRLLDTLRETQETLALTQGKLHEVGHERDSLQRQLNTALPQEFAALTKELNVCREQLLEREEEIAELKAERNNTRLLLEHLECLVSRHERSLRMTVVKRQAQSPAGVSSEVEVLKALKSLFEHHKALDEKVRERLRVALERCSLLEEELGATHKELMILKEQNNQKKTLTDGVLDINHEQENTPSTSGKRSSDGSLSHEEDLAKVIELQEIISKQSREQSQMKERLASLSSHVTELEEDLDTARKDLIKSEEMNTKLQRDVREAMAQKEDMEERITTLEKRYLAAQREATSVHDLNDKLENEIANKDSMHRQTEDKNRQLQERLELAEQKLQQTLRKAETLPEVEAELAQRVAALSKAEERHGNIEERLRQMEAQLEEKNQELQRARQREKMNEEHNKRLSDTVDKLLSESNERLQLHLKERMAALEDKNSLLREVESAKKQLEETQHDKDQLVLNIEALRAELDHMRLRGASLHHGRPHLGSVPDFRFPMADGHTDSYSTSAVLRRPQKGRLAALRDEPSKVQTLNEQDWERAQQASVLANVAQAFESDADVSDGEDDRDTLLSSVDLLSPSGQADAHTLAMMLQEQLDAINKEIRLIQEEKENTEQRAEEIESRVGSGSLDNLGRFRSMSSIPPYPASSLASSSPPGSGRSTPRRIPHSPAREVDRLGVMTLLPPSREEVRDDKTTIKCETSPPSSPRALRLDRLHKGALHTVSHEDIRDIRNSTGSQDGPVSNPSSSNSSQDSLHKAPKKKGIKSSIGRLFGKKEKGRPGQTGKEALGQAGVSETDNSSQDALGLSKLGGQAEKNRKLQKKHELLEEARRQGLPFAQWDGPTVVVWLELWVGMPAWYVAACRANVKSGAIMSALSDTEIQREIGISNPLHRLKLRLAIQEIMSLTSPSAPPTSRTTLAYGDMNHEWIGNEWLPSLGLPQYRSYFMECLVDARMLDHLTKKDLRGQLKMVDSFHRNSFQCGIMCLRRLNYDRKELERKREESQSEIKDVLVWSNDRVIRWILSIGLKEYANNLIESGVHGALLALDETFDFSALALLLQIPTQNTQARAVLEREFNNLLVMGTDRRFDEDDDKSFRRAPSWRKKFRPKDIRGLAAGSAETLPANFRVTSSMSSPSMQPKKMQMDGNVSGTQRLDSATVRTYSC
partner: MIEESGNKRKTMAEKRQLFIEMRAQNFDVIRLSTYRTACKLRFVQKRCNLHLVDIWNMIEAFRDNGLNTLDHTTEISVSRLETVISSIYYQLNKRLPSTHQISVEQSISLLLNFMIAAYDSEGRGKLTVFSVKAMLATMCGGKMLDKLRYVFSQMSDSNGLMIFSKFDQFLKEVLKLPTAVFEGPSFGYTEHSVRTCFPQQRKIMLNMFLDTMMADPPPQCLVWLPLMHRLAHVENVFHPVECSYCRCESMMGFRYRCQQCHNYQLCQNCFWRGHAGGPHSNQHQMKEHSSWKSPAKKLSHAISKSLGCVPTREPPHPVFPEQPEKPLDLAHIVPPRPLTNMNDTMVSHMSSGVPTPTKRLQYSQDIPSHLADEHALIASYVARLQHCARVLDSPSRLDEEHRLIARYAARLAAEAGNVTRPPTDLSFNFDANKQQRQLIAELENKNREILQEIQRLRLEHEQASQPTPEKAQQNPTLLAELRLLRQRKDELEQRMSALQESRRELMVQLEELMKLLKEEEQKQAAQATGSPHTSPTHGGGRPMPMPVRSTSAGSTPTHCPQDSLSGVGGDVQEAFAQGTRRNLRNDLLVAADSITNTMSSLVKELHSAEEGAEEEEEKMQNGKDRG
B3: Cyclic AMP-dependent transcription factor ATF-4 (Homo sapiens), P18848 (parent)
chain: MTEMSFLSSEVLVGDLMSPFDQSGLGAEESLGLLDDYLEVAKHFKPHGFSSDKAKAGSSEWLAVDGLVSPSNNSKEDAFSGTDWMLEKMDLKEFDLDALLGIDDLETMPDDLLTTLDDTCDLFAPLVQETNKQPPQTVNPIGHLPESLTKPDQVAPFTFLQPLPLSPGVLSSTPDHSFSLELGSEVDITEGDRKPDYTAYVAMIPQCIKEEDTPSDNDSGICMSPESYLGSPQHSPSTRGSPNRSLPSPGVLCGSARPKPYDPPGEKMVAAKVKGEKLDKKLKKMEQNKTAATRYRQKKRAEQEALTGECKELEKKNEALKERADSLAKEIQYLKDLIEEVRKARGKKRVP
partner: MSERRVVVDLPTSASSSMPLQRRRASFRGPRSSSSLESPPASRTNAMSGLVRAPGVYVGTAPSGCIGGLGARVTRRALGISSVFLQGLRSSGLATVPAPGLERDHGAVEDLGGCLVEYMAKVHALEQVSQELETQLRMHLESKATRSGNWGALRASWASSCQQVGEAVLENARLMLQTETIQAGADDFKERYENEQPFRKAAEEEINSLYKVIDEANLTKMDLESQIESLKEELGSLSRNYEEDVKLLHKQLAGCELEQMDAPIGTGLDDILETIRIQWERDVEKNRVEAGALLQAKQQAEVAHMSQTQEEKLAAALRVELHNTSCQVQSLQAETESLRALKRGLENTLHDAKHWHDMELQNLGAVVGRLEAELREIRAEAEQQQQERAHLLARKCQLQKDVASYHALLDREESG
B4: Vesicle transport protein USE1 (Homo sapiens), Q9NZ43 (parent)
chain: MAASRLELNLVRLLSRCEAMAAEKRDPDEWRLEKYVGALEDMLQALKVHASKPASEVINEYSWKVDFLKGMLQAEKLTSSSEKALANQFLAPGRVPTTARERVPATKTVHLQSRARYTSEMRSELLGTDSAEPEMDVRKRTGVAGSQPVSEKQLAAELDLVLQRHQNLQEKLAEEMLGLARSLKTNTLAAQSVIKKDNQTLSHSLKMADQNLEKLKTESERLEQHTQKSVNWLLWAMLIIVCFIFISMILFIRIMPKLK

Variants of: B1
Conditions: with fhl2_human FHL2, Q14192

Variant | effect of a mutation on the interaction
D227E | with no effect

Variants of: B2
Conditions: with dtnb_human DTNB

Variant | effect of a mutation on the interaction
L330F | with no effect

Variants of: B2
Conditions: with dtnb_human DTNB
Remark: another data set of the same source

Variant | effect of a mutation on the interaction
P389L | with no effect

Variants of: B3
Conditions: with bfsp2_human BFSP2, Q13515

Variant | effect of a mutation on the interaction
L180F | with no effect

Variants of: B4
Conditions: with bscl2_human BSCL2, Q96G97
bscl2_human BSCL2, Q96G97, sequence (Q96G97 whole entry): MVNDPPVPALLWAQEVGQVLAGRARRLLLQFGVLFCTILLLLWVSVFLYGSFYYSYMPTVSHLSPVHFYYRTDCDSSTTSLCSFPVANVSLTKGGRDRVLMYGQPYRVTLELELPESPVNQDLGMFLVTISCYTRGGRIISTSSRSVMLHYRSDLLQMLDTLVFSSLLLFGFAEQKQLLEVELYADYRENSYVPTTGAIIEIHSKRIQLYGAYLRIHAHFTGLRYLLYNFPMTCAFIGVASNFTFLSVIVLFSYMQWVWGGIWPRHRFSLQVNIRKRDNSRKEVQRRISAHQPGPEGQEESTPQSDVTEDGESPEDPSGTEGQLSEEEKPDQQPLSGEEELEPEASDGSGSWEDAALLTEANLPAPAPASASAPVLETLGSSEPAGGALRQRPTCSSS

Variant | effect of a mutation on the interaction
T217M | with no effect

Variants of: B4
Conditions: with creb3_human CREB3, O43889
creb3_human CREB3, O43889, sequence (O43889 whole entry): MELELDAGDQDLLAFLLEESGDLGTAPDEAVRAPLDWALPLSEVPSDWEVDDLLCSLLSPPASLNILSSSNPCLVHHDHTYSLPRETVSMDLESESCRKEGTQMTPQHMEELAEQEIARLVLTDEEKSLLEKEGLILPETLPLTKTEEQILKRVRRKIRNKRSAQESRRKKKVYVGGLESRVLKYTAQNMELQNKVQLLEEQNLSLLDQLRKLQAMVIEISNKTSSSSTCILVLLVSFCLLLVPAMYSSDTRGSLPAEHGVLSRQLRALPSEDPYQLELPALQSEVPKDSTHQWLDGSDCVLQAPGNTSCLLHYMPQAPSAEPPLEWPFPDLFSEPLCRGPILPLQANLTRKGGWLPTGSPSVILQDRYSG

Variant | effect of a mutation on the interaction
T217M | with no effect
